# Patent publication US20050118674A1, “Engineering of Controlled Deamidation Rates in Peptides, Proteins, and Similar Structures” (priority 2003, published 2005)
# Assay: First-order nonenzymatic deamidation of pentapeptides in Tris buffer
# Type: physicochemical
# Settings: pH 7.4, 37.0° C., 0.15 M Tris HCl; Asn pentapeptides
# Outline: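 First-order deamidation rates determined for XxxAsnYyy and XxxGlnYyy pentapeptides in 0.15 M Tris buffer, pH 7.4, 37° C. Not all values were measured directly: several Asn rates were estimated and most Gln rates came from surface fitting.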
row,Substance,First-Order Deamidation Halftimes of GlyXxxAsnYyyGly
1,GlyLysAsnLeuGly (GKNLG; printed: GlyLysAsnLeuGly),119 days
2,GlyLysAsnLysGly (GKNKG; printed: GlyLysAsnLysGly),53.5 days
3,GlyLysAsnMetGly (GKNMG; printed: GlyLysAsnMetGly),60.9 days
4,GlyLysAsnPheGly (GKNFG; printed: GlyLysAsnPheGly),70.1 days
5,GlyLysAsnProGly (GKNPG; printed: GlyLysAsnProGly),4940 days
6,GlyLysAsnSerGly (GKNSG; printed: GlyLysAsnSerGly),15.6 days
7,GlyLysAsnThrGly (GKNTG; printed: GlyLysAsnThrGly),58.1 days
8,GlyLysAsnTrpGly (GKNWG; printed: GlyLysAsnTrpGly),98.1 days
9,GlyLysAsnTyrGly (GKNYG; printed: GlyLysAsnTyrGly),96.7 days
10,GlyLysAsnValGly (GKNVG; printed: GlyLysAsnValGly),246 days
11,GlyMetAsnAlaGly (GMNAG; printed: GlyMetAsnAlaGly),22.1 days
12,GlyMetAsnAmCysGly,33.8 days
13,GlyMetAsnArgGly (GMNRG; printed: GlyMetAsnArgGly),58.8 days
14,GlyMetAsnAspGly (GMNDG; printed: GlyMetAsnAspGly),26.4 days
15,GlyMetAsnCysGly (GMNCG; printed: GlyMetAsnCysGly),49.6 days
16,GlyMetAsnGluGly (GMNEG; printed: GlyMetAsnGluGly),72.4 days
17,GlyMetAsnGlyGly (GMNGG; printed: GlyMetAsnGlyGly),1.04 days
18,GlyMetAsnHisGly (GMNHG; printed: GlyMetAsnHisGly),10.2 days
19,GlyMetAsnIleGly (GMNIG; printed: GlyMetAsnIleGly),275 days
20,GlyMetAsnLeuGly (GMNLG; printed: GlyMetAsnLeuGly),113 days
21,GlyMetAsnLysGly (GMNKG; printed: GlyMetAsnLysGly),60.4 days
22,GlyMetAsnMetGly (GMNMG; printed: GlyMetAsnMetGly),56.9 days

row,Substance,First-Order Deamidation Halftimes of GlyXxxAsnYyyGly
1,GlyMetAsnPheGly (GMNFG; printed: GlyMetAsnPheGly),61.9 days
2,GlyMetAsnProGly (GMNPG; printed: GlyMetAsnProGly),9300 days
3,GlyMetAsnSerGly (GMNSG; printed: GlyMetAsnSerGly),15.2 days
4,GlyMetAsnThrGly (GMNTG; printed: GlyMetAsnThrGly),43.6 days
5,GlyMetAsnTrpGly (GMNWG; printed: GlyMetAsnTrpGly),92.7 days
6,GlyMetAsnTyrGly (GMNYG; printed: GlyMetAsnTyrGly),74.0 days
7,GlyMetAsnValGly (GMNVG; printed: GlyMetAsnValGly),211 days
8,GlyPheAsnAlaGly (GFNAG; printed: GlyPheAsnAlaGly),24.2 days
9,GlyPheAsnAmCysGly,29.8 days
10,GlyPheAsnArgGly (GFNRG; printed: GlyPheAsnArgGly),61.2 days
11,GlyPheAsnAspGly (GFNDG; printed: GlyPheAsnAspGly),27.4 days
12,GlyPheAsnCysGly (GFNCG; printed: GlyPheAsnCysGly),46.5 days
13,GlyPheAsnGluGly (GFNEG; printed: GlyPheAsnGluGly),62.4 days
14,GlyPheAsnGlyGly (GFNGG; printed: GlyPheAsnGlyGly),1.15 days
15,GlyPheAsnHisGly (GFNHG; printed: GlyPheAsnHisGly),10.2 days
16,GlyPheAsnIleGly (GFNIG; printed: GlyPheAsnIleGly),287 days
17,GlyPheAsnLeuGly (GFNLG; printed: GlyPheAsnLeuGly),118 days
18,GlyPheAsnLysGly (GFNKG; printed: GlyPheAsnLysGly),58.2 days
19,GlyPheAsnMetGly (GFNMG; printed: GlyPheAsnMetGly),58.6 days
20,GlyPheAsnPheGly (GFNFG; printed: GlyPheAsnPheGly),69.5 days
21,GlyPheAsnProGly (GFNPG; printed: GlyPheAsnProGly),7990 days
22,GlyPheAsnSerGly (GFNSG; printed: GlyPheAsnSerGly),18.1 days

# Same assay, conditions: pH 7.4, 37.0 ° C., 0.15 M Tris HCl; Gln pentapeptides; 52 values measured, rest derived from surface fitting
row,Substance,First-Order Deamidation Halftimes of GlyXxxGlnYyyGly
1,GlyLysGlnAlaGly (GKQAG; printed: GlyLysGlnAlaGly),4300 days
2,GlyLysGlnArgGly (GKQRG; printed: GlyLysGlnArgGly),2300 days
3,GlyLysGlnAspGly (GKQDG; printed: GlyLysGlnAspGly),5900 days
4,GlyLysGlnCysGly (GKQCG; printed: GlyLysGlnCysGly),1000 days
5,GlyLysGlnGluGly (GKQEG; printed: GlyLysGlnGluGly),5400 days
6,GlyLysGlnGlyGly (GKQGG; printed: GlyLysGlnGlyGly),650 days
7,GlyLysGlnHisGly (GKQHG; printed: GlyLysGlnHisGly),6100 days
8,GlyLysGlnIleGly (GKQIG; printed: GlyLysGlnIleGly),5400 days
9,GlyLysGlnLeuGly (GKQLG; printed: GlyLysGlnLeuGly),5300 days
10,GlyLysGlnLysGly (GKQKG; printed: GlyLysGlnLysGly),4000 days
11,GlyLysGlnMetGly (GKQMG; printed: GlyLysGlnMetGly),4000 days
12,GlyLysGlnPheGly (GKQFG; printed: GlyLysGlnPheGly),7000 days
13,GlyLysGlnProGly (GKQPG; printed: GlyLysGlnProGly),7700 days
14,GlyLysGlnSerGly (GKQSG; printed: GlyLysGlnSerGly),4200 days
15,GlyLysGlnThrGly (GKQTG; printed: GlyLysGlnThrGly),4100 days
16,GlyLysGlnTrpGly (GKQWG; printed: GlyLysGlnTrpGly),10000 days
17,GlyLysGlnTyrGly (GKQYG; printed: GlyLysGlnTyrGly),8800 days
18,GlyLysGlnValGly (GKQVG; printed: GlyLysGlnValGly),5700 days

row,Substance,First-Order Deamidation Halftimes of GlyXxxGlnYyyGly
1,GlyMetGlnAlaGly (GMQAG; printed: GlyMetGlnAlaGly),4400 days
2,GlyMetGlnArgGly (GMQRG; printed: GlyMetGlnArgGly),5100 days
3,GlyMetGlnAspGly (GMQDG; printed: GlyMetGlnAspGly),6200 days
4,GlyMetGlnCysGly (GMQCG; printed: GlyMetGlnCysGly),900 days
5,GlyMetGlnGluGly (GMQEG; printed: GlyMetGlnGluGly),5800 days
6,GlyMetGlnGlyGly (GMQGG; printed: GlyMetGlnGlyGly),600 days
7,GlyMetGlnHisGly (GMQHG; printed: GlyMetGlnHisGly),4400 days
8,GlyMetGlnIleGly (GMQIG; printed: GlyMetGlnIleGly),5000 days
9,GlyMetGlnLeuGly (GMQLG; printed: GlyMetGlnLeuGly),5000 days
10,GlyMetGlnLysGly (GMQKG; printed: GlyMetGlnLysGly),4600 days
11,GlyMetGlnMetGly (GMQMG; printed: GlyMetGlnMetGly),3500 days
12,GlyMetGlnPheGly (GMQFG; printed: GlyMetGlnPheGly),6600 days
13,GlyMetGlnProGly (GMQPG; printed: GlyMetGlnProGly),7300 days
14,GlyMetGlnSerGly (GMQSG; printed: GlyMetGlnSerGly),4100 days
15,GlyMetGlnThrGly (GMQTG; printed: GlyMetGlnThrGly),3800 days
16,GlyMetGlnTrpGly (GMQWG; printed: GlyMetGlnTrpGly),9400 days
17,GlyMetGlnTyrGly (GMQYG; printed: GlyMetGlnTyrGly),8200 days
18,GlyMetGlnValGly (GMQVG; printed: GlyMetGlnValGly),5000 days
